# B1: H2-Kb / Ed5 (parent complex)
# chain 1: GDSVTQTEGPVTVSESESLIINCTYSATSIAYPNLFWYVRYPGEGLQLLLKVITAGQKGSSRGFEATYNKETTSFHLQKASVQESDSAVYYCALGSYNQGKLIFGQGTKLSIKP
# chain 2: DTTVKQNPRYKLARVGKPVNLICSQTMNHDTMYWYQKKPNQAPKLLLFYYDKILNREADTFEKFQSSRPNNSFCSLYIGSAGLEYSAMYLCASSRRLGASQNTLYFGAGTRLSVL
# chain 3: not shown
# chain 4: IQKTPQIQVYSRHPPENGKPNILNCYVTQFHPPHIEIQMLKNGKKIPKVEMSDMSFSKDWSFYILAHTEFTPTETDTYACRVKHDSMAEPKTVYWDRDM
# chain 5: SIINFEKL
# Variants of: B1
# Assay: % of reporter cells activated (NFAT-GFP), raw; note: test concentration or dose not given here
row,Variant,ratio to parent
1,chain 5 N4Y,0.0536
2,chain 5 N4D,0.756
3,chain 5 N4S,0.0018
4,chain 5 N4W,0.0358
5,chain 5 N4L,0.182
6,chain 5 N4R,0.374
7,chain 5 N4G,0.00398
8,chain 5 N4K,0.0781
9,chain 5 N4F,0.0112
10,chain 5 N4E,0.00233
11,chain 5 N4A,0.002
12,chain 5 N4Q,0.00458
13,chain 5 N4P,0.00308
14,chain 5 N4I,0.274
15,chain 5 N4T,0.04
16,chain 5 N4C,0.164
17,chain 5 N4H,0.11
18,chain 5 N4M,0.00113
19,chain 5 F5H,0.822
20,chain 5 F5Q,0.951
21,chain 5 F5V,0.777
22,chain 5 F5C,1.04
23,chain 5 F5M,0.938
24,chain 5 F5A,1.01
25,chain 5 F5G,0.698

row,Variant,ratio to parent
1,chain 5 F5L,0.996
2,chain 5 F5E,0.848
3,chain 5 F5T,0.887
4,chain 5 F5Y,0.892
5,chain 5 F5S,0.735
6,chain 5 F5P,0.98
7,chain 5 F5R,0.764
8,chain 5 F5W,0.695
9,chain 5 F5N,0.855
10,chain 5 F5I,0.886
11,chain 5 F5K,0.905
12,chain 5 S1R,0.293
13,chain 5 S1I,0.00825
14,chain 5 S1C,0.161
15,chain 5 S1Q,0.556
16,chain 5 S1H,0.559
17,chain 5 S1D,0.629
18,chain 5 S1W,0.374
19,chain 5 S1T,0.944
20,chain 5 S1Y,0.689
21,chain 5 S1V,0.126
22,chain 5 S1N,0.305
23,chain 5 S1F,0.0691
24,chain 5 S1K,0.685
25,chain 5 S1P,0.0946

row,Variant,ratio to parent
1,chain 5 S1L,0.0134
2,chain 5 S1E,0.981
3,chain 5 S1G,0.491
4,chain 5 S1M,0.02
5,chain 5 I2N,0.749
6,chain 5 I2G,0.875
7,chain 5 I2S,0.989
8,chain 5 I2C,0.958
9,chain 5 I2Y,0.642
10,chain 5 I2R,0.641
11,chain 5 I2H,0.763
12,chain 5 I2P,1.04
13,chain 5 I2Q,0.711
14,chain 5 I2W,0.66
15,chain 5 I2E,0.852
16,chain 5 I2A,1.01
17,chain 5 I2T,1
18,chain 5 I2F,0.851
19,chain 5 I2L,0.974
20,chain 5 I2V,1.01
21,chain 5 I2K,0.798
22,chain 5 I2D,0.943
23,chain 5 I3C,0.673
24,chain 5 I3H,0.121
25,chain 5 I3G,0.28

# Reference: paper PMC11480844 (2024)
